Data from PMC5624731 (2018).
One block for each binder: values may come before it.

Assays:
Assay in all cases: nESI-MS
[1] = biological target: Ferredoxin (Spinacia oleracea, UniProt P00221)
[2] = biological target: PCBP1 (Homo sapiens, UniProt Q15365)
[3] = biological target: PCBP1 (apo) (Homo sapiens, UniProt Q15365)
Chain of PCBP1 (apo) (Q15365 whole entry): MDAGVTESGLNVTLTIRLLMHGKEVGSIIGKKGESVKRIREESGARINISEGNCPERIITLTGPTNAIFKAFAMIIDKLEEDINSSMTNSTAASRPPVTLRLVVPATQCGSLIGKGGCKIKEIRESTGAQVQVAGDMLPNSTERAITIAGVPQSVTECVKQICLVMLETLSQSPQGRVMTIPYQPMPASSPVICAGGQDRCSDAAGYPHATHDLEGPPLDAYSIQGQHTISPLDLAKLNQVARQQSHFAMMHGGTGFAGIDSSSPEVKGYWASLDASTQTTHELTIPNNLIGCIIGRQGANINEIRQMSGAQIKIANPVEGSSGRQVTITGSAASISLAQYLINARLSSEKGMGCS

Chain of PCBP1 (Q15365 whole entry): as above
Chain of Ferredoxin (P00221 51-147): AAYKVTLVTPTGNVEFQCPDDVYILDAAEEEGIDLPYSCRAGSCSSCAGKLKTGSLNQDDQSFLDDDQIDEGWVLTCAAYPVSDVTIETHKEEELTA

- Kd [1]: 16 µM
B1: Ferredoxin-NADP+ reductase (protein)
chain: QIASDVEAPPPAPAKVEKHSKKMEEGITVNKFKPKTPYVGRCLLNTKITGDDAPGETWHMVFSHEGEIPYREGQSVGVIPDGEDKNGKPHKLRLYSIASSALGDFGDAKSVSLCVKRLIYTNDAGETIKGVCSNFLCDLKPGAEVKLTGPVGKEMLMPKDPNATIIMLGTGTGIAPFRSFLWKMFFEKHDDYKFNGLAWLFLGVPTSSSLLYKEEFEKMKEKAPDNFRLDFAVSREQTNEKGEKMYIQTRMAQYAVELWEMLKKDNTYFYMCGLKGMEKGIDDIMVSLAAAEGIDWIEYKRQLKKAEQWNVEVY

- Kd [2]: 60 µM
B2: HDAC8 (Zn) (protein)
chain: MEEPEEPADSGQSLVPVYIYSPEYVSMCDSLAKIPKRASMVHSLIEAYALHKQMRIVKPKVASMEEMATFHTDAYLQHLQKVSQEGDDDHPDSIEYGLGYDCPATEGIFDYAAAIGGATITAAQCLIDGMCKVAINWSGGWHHAKKDEASGFCYLNDAVLGILRLRRKFERILYVDLDLHHGDGVEDAFSFTSKVMTVSLHKFSPGFFPGTGDVSDVGLGKGRYYSVNVPIQDGIQDEKYYQICESVLKEVYQAFNPKAVVLQLGADTIAGDPMCSFNMTPVGIGKCLKYILQWQLATLILGGGGYNLANTARCWTYLTGVILGKTLSSEIPDHEFFTAYGPDYVLEITPSCRPDRNEPHRIQQILNYIKGNLKHVV
modifications: Zn2+-bound HDAC8

- Kd [3]: 68 µM
B3: HDAC8 (apo) (protein)
chain: B2 chain

- Kd [2]: 63 µM
B4: HDAC8 (protein)
chain: B2 chain

- Kd [2]: 44 µM
B5: HDAC8 (Fe) (protein)
chain: B2 chain
modifications: Fe2+-bound HDAC8
